Data published in publication PMC6446905 (Science (New York, N.Y.), 2018).

T1: TAF2 (human (endogenous in HeLa), UniProt Q6P1X5 1-1199)
T1 sequence (looked up): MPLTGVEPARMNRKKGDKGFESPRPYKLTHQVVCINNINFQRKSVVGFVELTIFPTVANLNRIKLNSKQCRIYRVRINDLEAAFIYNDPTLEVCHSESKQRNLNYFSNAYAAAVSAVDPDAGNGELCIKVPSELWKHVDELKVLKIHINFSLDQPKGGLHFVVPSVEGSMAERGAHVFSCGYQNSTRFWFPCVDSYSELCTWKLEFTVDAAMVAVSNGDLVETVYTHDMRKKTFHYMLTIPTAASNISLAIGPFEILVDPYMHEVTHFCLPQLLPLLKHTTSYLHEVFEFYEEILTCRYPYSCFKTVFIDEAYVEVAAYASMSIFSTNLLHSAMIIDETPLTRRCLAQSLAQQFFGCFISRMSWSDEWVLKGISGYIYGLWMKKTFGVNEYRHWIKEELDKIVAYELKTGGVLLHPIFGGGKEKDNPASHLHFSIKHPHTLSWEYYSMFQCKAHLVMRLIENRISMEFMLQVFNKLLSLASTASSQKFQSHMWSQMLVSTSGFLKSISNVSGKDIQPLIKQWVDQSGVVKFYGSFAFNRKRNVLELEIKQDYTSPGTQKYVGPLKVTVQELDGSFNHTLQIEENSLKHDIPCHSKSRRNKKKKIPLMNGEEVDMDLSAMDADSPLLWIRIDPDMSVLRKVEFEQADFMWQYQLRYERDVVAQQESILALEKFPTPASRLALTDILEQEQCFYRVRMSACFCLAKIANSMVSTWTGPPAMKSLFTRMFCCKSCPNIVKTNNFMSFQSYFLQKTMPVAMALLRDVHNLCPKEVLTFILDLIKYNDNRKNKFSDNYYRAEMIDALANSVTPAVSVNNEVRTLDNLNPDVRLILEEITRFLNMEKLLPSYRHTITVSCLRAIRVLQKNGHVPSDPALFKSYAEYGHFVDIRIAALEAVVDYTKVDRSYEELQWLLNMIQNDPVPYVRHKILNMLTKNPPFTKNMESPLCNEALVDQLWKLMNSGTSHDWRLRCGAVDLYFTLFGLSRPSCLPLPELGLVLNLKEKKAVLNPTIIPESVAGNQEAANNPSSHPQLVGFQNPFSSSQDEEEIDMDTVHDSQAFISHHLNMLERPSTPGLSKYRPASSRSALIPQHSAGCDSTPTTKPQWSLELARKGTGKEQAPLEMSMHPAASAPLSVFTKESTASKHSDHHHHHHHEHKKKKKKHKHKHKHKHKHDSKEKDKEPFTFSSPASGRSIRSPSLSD

T2: TAF4 (human (endogenous in HeLa), UniProt O00268 1-1085)
T2 sequence (looked up): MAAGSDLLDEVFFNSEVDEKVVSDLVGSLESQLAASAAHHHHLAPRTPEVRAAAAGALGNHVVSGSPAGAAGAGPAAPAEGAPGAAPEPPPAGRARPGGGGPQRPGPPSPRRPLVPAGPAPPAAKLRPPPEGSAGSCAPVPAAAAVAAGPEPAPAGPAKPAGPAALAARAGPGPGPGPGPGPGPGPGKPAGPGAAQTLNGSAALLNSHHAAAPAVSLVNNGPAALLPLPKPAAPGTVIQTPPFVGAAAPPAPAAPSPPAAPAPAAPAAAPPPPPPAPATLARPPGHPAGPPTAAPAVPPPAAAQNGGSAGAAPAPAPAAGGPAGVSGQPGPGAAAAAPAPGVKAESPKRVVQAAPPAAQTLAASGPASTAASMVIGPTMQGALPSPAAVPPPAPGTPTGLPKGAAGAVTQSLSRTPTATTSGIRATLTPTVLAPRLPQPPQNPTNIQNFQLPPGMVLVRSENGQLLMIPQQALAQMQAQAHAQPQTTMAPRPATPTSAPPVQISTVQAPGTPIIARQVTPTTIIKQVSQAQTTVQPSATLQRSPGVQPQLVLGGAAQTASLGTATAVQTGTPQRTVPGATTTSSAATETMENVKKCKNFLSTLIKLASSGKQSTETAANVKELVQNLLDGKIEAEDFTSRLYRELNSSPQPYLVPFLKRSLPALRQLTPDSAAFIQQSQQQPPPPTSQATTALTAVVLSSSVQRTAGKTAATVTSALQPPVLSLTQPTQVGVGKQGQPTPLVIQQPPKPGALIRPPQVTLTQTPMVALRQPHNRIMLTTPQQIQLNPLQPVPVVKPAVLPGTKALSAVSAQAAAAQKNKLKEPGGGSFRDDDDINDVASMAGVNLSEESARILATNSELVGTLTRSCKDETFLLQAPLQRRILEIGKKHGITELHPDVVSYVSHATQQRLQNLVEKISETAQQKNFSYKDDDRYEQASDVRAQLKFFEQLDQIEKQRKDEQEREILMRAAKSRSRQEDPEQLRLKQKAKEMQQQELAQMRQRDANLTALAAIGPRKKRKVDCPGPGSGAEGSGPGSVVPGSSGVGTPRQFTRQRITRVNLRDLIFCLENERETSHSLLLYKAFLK

B1: TAF6 (natural protein)
chain: not shown
B2: TAF5 (natural protein, human (endogenous in HeLa), UniProt Q15542 1-800, looked up)
chain: MAALAEEQTEVAVKLEPEGPPTLLPPQAGDGAGEGSGGTTNNGPNGGGGNVAASSSTGGDGGTPKPTVAVSAAAPAGAAPVPAAAPDAGAPHDRQTLLAVLQFLRQSKLREAEEALRREAGLLEEAVAGSGAPGEVDSAGAEVTSALLSRVTASAPGPAAPDPPGTGASGATVVSGSASGPAAPGKVGSVAVEDQPDVSAVLSAYNQQGDPTMYEEYYSGLKHFIECSLDCHRAELSQLFYPLFVHMYLELVYNQHENEAKSFFEKFHGDQECYYQDDLRVLSSLTKKEHMKGNETMLDFRTSKFVLRISRDSYQLLKRHLQEKQNNQIWNIVQEHLYIDIFDGMPRSKQQIDAMVGSLAGEAKREANKSKVFFGLLKEPEIEVPLDDEDEEGENEEGKPKKKKPKKDSIGSKSKKQDPNAPPQNRIPLPELKDSDKLDKIMNMKETTKRVRLGPDCLPSICFYTFLNAYQGLTAVDVTDDSSLIAGGFADSTVRVWSVTPKKLRSVKQASDLSLIDKESDDVLERIMDEKTASELKILYGHSGPVYGASFSPDRNYLLSSSEDGTVRLWSLQTFTCLVGYKGHNYPVWDTQFSPYGYYFVSGGHDRVARLWATDHYQPLRIFAGHLADVNCTRFHPNSNYVATGSADRTVRLWDVLNGNCVRIFTGHKGPIHSLTFSPNGRFLATGATDGRVLLWDIGHGLMVGELKGHTDTVCSLRFSRDGEILASGSMDNTVRLWDAIKAFEDLETDDFTTATGHINLPENSQELLLGTYMTKSTPVVHLHFTRRNLVLAAGAYSPQ

Tests used:
Experiment in all cases: cryo-EM structure
[1] = biological target: B1
[2] = biological target: B2
[3] = biological target: T1, TAF2
[4] = biological target: T2, TAF4
[5] = biological target: the molecule itself

Row | binding result [1] | binding result [2] | binding result [4] | Binder | also measured
1 | binds | binds |  | TAF8 (natural protein, human (endogenous in HeLa), UniProt Q7Z7C8 1-310, looked up) MADAAATAGAGGSGTRSGSKQSTNPADNYHLARRRTLQVVVSSLLTEAGFESAEKASVETLTEMLQSYISEIGRSAKSYCEHTARTQPTLSDIVVTLVEMGFNVDTLPAYAKRSQRMVITAPPVTNQPVTPKALTAGQNRPHPPHIPSHFPEFPDPHTYIKTPTYREPVSDYQVLREKAASQRRDVERALTRFMAKTGETQSLFKDDVSTFPLIAARPFTIPYLTALLPSELEMQQMEETDSSEQDEQTDTENLALHISMEDSGAEKENTSVLQQNPSLSGSRNGEENIIDNPYLRPVKKPKIRRKKSLS | binding result [3]: binds
2 |  |  | binds | TAF12 (natural protein, human (endogenous in HeLa), UniProt Q16514 1-161, looked up) MNQFGPSALINLSNFSSIKPEPASTPPQGSMANSTAVVKIPGTPGAGGRLSPENNQVLTKKKLQDLVREVDPNEQLDEDVEEMLLQIADDFIESVVTAACQLARHRKSSTLEVKDVQLHLERQWNMWIPGFGSEEIRPYKKACTTEAHKQRMALIRKTTKK | 
3 | binds | binds |  | TAF9 (natural protein, human (endogenous in HeLa), UniProt Q16594 1-264, looked up) MESGKTASPKSMPKDAQMMAQILKDMGITEYEPRVINQMLEFAFRYVTTILDDAKIYSSHAKKATVDADDVRLAIQCRADQSFTSPPPRDFLLDIARQRNQTPLPLIKPYSGPRLPPDRYCLTAPNYRLKSLQKKASTSAGRITVPRLSVGSVTSRPSTPTLGTPTPQTMSVSTKVGTPMSLTGQRFTVQMPTSQSPAVKASIPATSAVQNVLINPSLIGSKNILITTNMMSSQNTANESSNALKRKREDDDDDDDDDDDYDNL | 
4 |  |  |  | B1 | stoichiometry N [5]: 2
5 |  |  | binds | B2 | 
